Reference: US20220033484A1 (FAPON BIOTECH, published 2022)

Each binder was assayed against T1, cTnI quality control product recombinant protein (human, UniProt P19429 2-210, limits assumed) (assay: AMC sensor, antibody immobilised, cTnI in solution).
T1 construct: treated as the same molecule; also called cTnI antigen; cardiac troponin I
Description: Operating process: it is equilibrated in Buffer 1 (PBST) for 60 s, the antibody is immobilized in an antibody solution for 300 s, incubated in Buffer 2 (PBST) for 180 s, bound in antigen solution for 420 s, dissociated in the Buffer 2 for 1200 s, 10 mM of GLY solution with pH 1.69 and Buffer 3 are used for sensor regeneration, and data is output. KD represents an equilibrium dissociation constant, namely the affinity; Kon represents a binding rate; and Kd is represents a dissociation rate.

T1 sequence (P19429 2-210 limits assumed): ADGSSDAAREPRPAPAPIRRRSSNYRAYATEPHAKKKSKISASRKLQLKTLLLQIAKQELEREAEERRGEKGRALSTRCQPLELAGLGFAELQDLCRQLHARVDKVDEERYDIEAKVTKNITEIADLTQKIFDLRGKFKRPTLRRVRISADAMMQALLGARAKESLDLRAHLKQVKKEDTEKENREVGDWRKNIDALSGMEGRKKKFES

| Binder | Kd | koff | kon |
| --- | --- | --- | --- |
| Mutation 1-18 (antibody, V domains shown, Built as m8) VH: EVQLQQSGPELVKPGASVKMSCKASGYTFTIYVVHWVKQKPGQGLEWIGYINPYLDGTKYNEKFKGKATLTVDKSSSTAFMELSSLTSEDSAVYYCARSGYGQYGLAWLAYWGQGTLVTVSA VL: QAVVIQESALTTSPGETVTLTCRSSTGAVTTSQYANWVQEKPDHLFTGLIGGSNNRAPGVPARFSGSLIGDKAALTITGAQTEDEAIYFCALVYSNHWVFGGGTKLTVLG | 9.31 nM | 0.000586 s⁻¹ | 63000 M⁻¹ s⁻¹ |
| Mutation 1-37 (antibody, V domains shown, Built as m8) VH: EVQLQQSGPELVKPGASVKMSCKASGYTFTIYVLHWVKQKPGQGLEWIGYINPYLDGTKYNEKFKGKATLTVDKSSSTAFMELSSLTSEDSAVYYCARSGYGNYGLAWLAYWGQGTLVTVSA VL: QAVVIQESALTTSPGETVTLTCRSSTGAVTTSQYANWVQEKPDHLFTGLIGGSQNRAPGVPARFSGSLIGDKAALTITGAQTEDEAIYFCALVYSNQWVFGGGTKLTVLG | 5.21 nM | 0.000208 s⁻¹ | 39900 M⁻¹ s⁻¹ |
| Mutation 1-21 (antibody, V domains shown, Built as m8) VH: EVQLQQSGPELVKPGASVKMSCKASGYTFTLYVVHWVKQKPGQGLEWIGYIYPYIDGTKYNEKFKGKATLTVDKSSSTAFMELSSLTSEDSAVYYCARSGYGQYGLAWLAYWGQGTLVTVSA VL: QAVVIQESALTTSPGETVTLTCRSSTGAATTSNYANWVQEKPDHLFTGLIGGSQNRAPGVPARFSGSLIGDKAALTITGAQTEDEAIYFCALVYSNQWVFGGGTKLTVLG | 1.47 nM | 5.71e-05 s⁻¹ | 38800 M⁻¹ s⁻¹ |
| Mutation 1-30 (antibody, V domains shown, Built as m8) VH: EVQLQQSGPELVKPGASVKMSCKASGYTFTIYVVHWVKQKPGQGLEWIGYIQPYLDGTKYNEKFKGKATLTVDKSSSTAFMELSSLTSEDSAVYYCARSGYGQYGLAWLAYWGQGTLVTVSA VL: QAVVIQESALTTSPGETVTLTCRSSTGAATTSQYANWVQEKPDHLFTGLIGGSNNRAPGVPARFSGSLIGDKAALTITGAQTEDEAIYFCALVYSNQWVFGGGTKLTVLG | 3.71 nM | 0.00022 s⁻¹ | 59500 M⁻¹ s⁻¹ |
| Mutation 1-31 (antibody, V domains shown, Built as m8) VH: EVQLQQSGPELVKPGASVKMSCKASGYTFTIYVLHWVKQKPGQGLEWIGYINPYIDGTKYNEKFKGKATLTVDKSSSTAFMELSSLTSEDSAVYYCARSGYGNYGLAWLAYWGQGTLVTVSA VL: QAVVIQESALTTSPGETVTLTCRSSTGAATTSQYANWVQEKPDHLFTGLIGGSQNRAPGVPARFSGSLIGDKAALTITGAQTEDEAIYFCALVYSNNWVFGGGTKLTVLG | 9.41 nM | 0.00034 s⁻¹ | 36100 M⁻¹ s⁻¹ |
| Mutation 1-27 (antibody, V domains shown, Built as m8) VH: EVQLQQSGPELVKPGASVKMSCKASGYTFTLYVVHWVKQKPGQGLEWIGYIYPYLDGTKYNEKFKGKATLTVDKSSSTAFMELSSLTSEDSAVYYCARSGYGQYGLAWLAYWGQGTLVTVSA VL: QAVVIQESALTTSPGETVTLTCRSSTGAVTTSNYANWVQEKPDHLFTGLIGGSQNRAPGVPARFSGSLIGDKAALTITGAQTEDEAIYFCALVYSNHWVFGGGTKLTVLG | 0.353 nM | 7.31e-06 s⁻¹ | 20700 M⁻¹ s⁻¹ |
| Mutation 1-24 (antibody, V domains shown, Built as m8) VH: EVQLQQSGPELVKPGASVKMSCKASGYTFTIYVVHWVKQKPGQGLEWIGYIYPYLDGTKYNEKFKGKATLTVDKSSSTAFMELSSLTSEDSAVYYCARSGYGQYGLAWLAYWGQGTLVTVSA VL: QAVVIQESALTTSPGETVTLTCRSSTGAATTSQYANWVQEKPDHLFTGLIGGSNNRAPGVPARFSGSLIGDKAALTITGAQTEDEAIYFCALVYSNNWVFGGGTKLTVLG | 0.63 nM | 3.62e-05 s⁻¹ | 57400 M⁻¹ s⁻¹ |
| Mutation 1-36 (antibody, V domains shown, Built as m8; CDR-VL1 cell printed 'VQ', read as V/Q) VH: EVQLQQSGPELVKPGASVKMSCKASGYTFTIYVVHWVKQKPGQGLEWIGYINPYIDGTKYNEKFKGKATLTVDKSSSTAFMELSSLTSEDSAVYYCARSGYGQYGLAWLAYWGQGTLVTVSA VL: QAVVIQESALTTSPGETVTLTCRSSTGAVTTSQYANWVQEKPDHLFTGLIGGSNNRAPGVPARFSGSLIGDKAALTITGAQTEDEAIYFCALVYSNHWVFGGGTKLTVLG | 3.29 nM | 0.000118 s⁻¹ | 36000 M⁻¹ s⁻¹ |
| Mutation 1-20 (antibody, V domains shown, Built as m8) VH: EVQLQQSGPELVKPGASVKMSCKASGYTFTIYVIHWVKQKPGQGLEWIGYIYPYIDGTKYNEKFKGKATLTVDKSSSTAFMELSSLTSEDSAVYYCARSGYGGYGLAWLAYWGQGTLVTVSA VL: QAVVIQESALTTSPGETVTLTCRSSTGAATTSQYANWVQEKPDHLFTGLIGGSNNRAPGVPARFSGSLIGDKAALTITGAQTEDEAIYFCALVYSNNWVFGGGTKLTVLG | 7.74 nM | 0.000542 s⁻¹ | 70000 M⁻¹ s⁻¹ |
| Mutation 1-25 (antibody, V domains shown, Built as m8) VH: EVQLQQSGPELVKPGASVKMSCKASGYTFTIYVLHWVKQKPGQGLEWIGYIYPYLDGTKYNEKFKGKATLTVDKSSSTAFMELSSLTSEDSAVYYCARSGYGNYGLAWLAYWGQGTLVTVSA VL: QAVVIQESALTTSPGETVTLTCRSSTGAATTSNYANWVQEKPDHLFTGLIGGSQNRAPGVPARFSGSLIGDKAALTITGAQTEDEAIYFCALVYSNHWVFGGGTKLTVLG | 6.6 nM | 0.00053 s⁻¹ | 80300 M⁻¹ s⁻¹ |
| Mutation 1-26 (antibody, V domains shown, Built as m8) VH: EVQLQQSGPELVKPGASVKMSCKASGYTFTIYVIHWVKQKPGQGLEWIGYIYPYLDGTKYNEKFKGKATLTVDKSSSTAFMELSSLTSEDSAVYYCARSGYGGYGLAWLAYWGQGTLVTVSA VL: QAVVIQESALTTSPGETVTLTCRSSTGAVTTSQYANWVQEKPDHLFTGLIGGSNNRAPGVPARFSGSLIGDKAALTITGAQTEDEAIYFCALVYSNQWVFGGGTKLTVLG | 0.465 nM | 1.85e-05 s⁻¹ | 39800 M⁻¹ s⁻¹ |
| Mutation 1-28 (antibody, V domains shown, Built as m8) VH: EVQLQQSGPELVKPGASVKMSCKASGYTFTLYVLHWVKQKPGQGLEWIGYIYPYLDGTKYNEKFKGKATLTVDKSSSTAFMELSSLTSEDSAVYYCARSGYGNYGLAWLAYWGQGTLVTVSA VL: QAVVIQESALTTSPGETVTLTCRSSTGAATTSQYANWVQEKPDHLFTGLIGGSNNRAPGVPARFSGSLIGDKAALTITGAQTEDEAIYFCALVYSNQWVFGGGTKLTVLG | 1.76 nM | 0.000158 s⁻¹ | 89600 M⁻¹ s⁻¹ |
| Mutation 1-35 (antibody, V domains shown, Built as m8) VH: EVQLQQSGPELVKPGASVKMSCKASGYTFTLYVIHWVKQKPGQGLEWIGYIQPYLDGTKYNEKFKGKATLTVDKSSSTAFMELSSLTSEDSAVYYCARSGYGGYGLAWLAYWGQGTLVTVSA VL: QAVVIQESALTTSPGETVTLTCRSSTGAATTSNYANWVQEKPDHLFTGLIGGSQNRAPGVPARFSGSLIGDKAALTITGAQTEDEAIYFCALVYSNQWVFGGGTKLTVLG | 0.832 nM | 4.31e-05 s⁻¹ | 51800 M⁻¹ s⁻¹ |
| Mutation 1-23 (antibody, V domains shown, Built as m8) VH: EVQLQQSGPELVKPGASVKMSCKASGYTFTLYVIHWVKQKPGQGLEWIGYIYPYIDGTKYNEKFKGKATLTVDKSSSTAFMELSSLTSEDSAVYYCARSGYGGYGLAWLAYWGQGTLVTVSA VL: QAVVIQESALTTSPGETVTLTCRSSTGAVTTSNYANWVQEKPDHLFTGLIGGSQNRAPGVPARFSGSLIGDKAALTITGAQTEDEAIYFCALVYSNHWVFGGGTKLTVLG | 8.49 nM | 0.000353 s⁻¹ | 41600 M⁻¹ s⁻¹ |
| Mutation 1-32 (antibody, V domains shown, Built as m8) VH: EVQLQQSGPELVKPGASVKMSCKASGYTFTIYVIHWVKQKPGQGLEWIGYINPYLDGTKYNEKFKGKATLTVDKSSSTAFMELSSLTSEDSAVYYCARSGYGGYGLAWLAYWGQGTLVTVSA VL: QAVVIQESALTTSPGETVTLTCRSSTGAATTSNYANWVQEKPDHLFTGLIGGSNNRAPGVPARFSGSLIGDKAALTITGAQTEDEAIYFCALVYSNHWVFGGGTKLTVLG | 0.765 nM | 5.3e-05 s⁻¹ | 69300 M⁻¹ s⁻¹ |
| Mutation 1-33 (antibody, V domains shown, Built as m8) VH: EVQLQQSGPELVKPGASVKMSCKASGYTFTLYVVHWVKQKPGQGLEWIGYIYPYIDGTKYNEKFKGKATLTVDKSSSTAFMELSSLTSEDSAVYYCARSGYGGYGLAWLAYWGQGTLVTVSA VL: QAVVIQESALTTSPGETVTLTCRSSTGAATTSQYANWVQEKPDHLFTGLIGGSQNRAPGVPARFSGSLIGDKAALTITGAQTEDEAIYFCALVYSNNWVFGGGTKLTVLG | 7.95 nM | 0.000331 s⁻¹ | 41700 M⁻¹ s⁻¹ |
| Mutation 1-29 (antibody, V domains shown, Built as m8) VH: EVQLQQSGPELVKPGASVKMSCKASGYTFTLYVIHWVKQKPGQGLEWIGYIQPYIDGTKYNEKFKGKATLTVDKSSSTAFMELSSLTSEDSAVYYCARSGYGGYGLAWLAYWGQGTLVTVSA VL: QAVVIQESALTTSPGETVTLTCRSSTGAATTSQYANWVQEKPDHLFTGLIGGSQNRAPGVPARFSGSLIGDKAALTITGAQTEDEAIYFCALVYSNNWVFGGGTKLTVLG | 3.8 nM | 0.000207 s⁻¹ | 54500 M⁻¹ s⁻¹ |
| Mutation 1-22 (antibody, V domains shown, Built as m8) VH: EVQLQQSGPELVKPGASVKMSCKASGYTFTLYVLHWVKQKPGQGLEWIGYIYPYIDGTKYNEKFKGKATLTVDKSSSTAFMELSSLTSEDSAVYYCARSGYGNYGLAWLAYWGQGTLVTVSA VL: QAVVIQESALTTSPGETVTLTCRSSTGAVTTSQYANWVQEKPDHLFTGLIGGSNNRAPGVPARFSGSLIGDKAALTITGAQTEDEAIYFCALVYSNNWVFGGGTKLTVLG | 0.106 nM | 2.86e-06 s⁻¹ | 27000 M⁻¹ s⁻¹ |
| Mutation 1-34 (antibody, V domains shown, Built as m8) VH: EVQLQQSGPELVKPGASVKMSCKASGYTFTLYVLHWVKQKPGQGLEWIGYIQPYIDGTKYNEKFKGKATLTVDKSSSTAFMELSSLTSEDSAVYYCARSGYGNYGLAWLAYWGQGTLVTVSA VL: QAVVIQESALTTSPGETVTLTCRSSTGAATTSNYANWVQEKPDHLFTGLIGGSNNRAPGVPARFSGSLIGDKAALTITGAQTEDEAIYFCALVYSNHWVFGGGTKLTVLG | 3.41 nM | 0.000198 s⁻¹ | 58000 M⁻¹ s⁻¹ |
